Laboratory results as given in US11725220B1, “Production of fusel lactates via biocatalysis” (National Technology & Engineering Solutions of Sandia, LLC, priority 2020, dated 2023).

B1: EEB1: esterase from Saccharomyces cerevisiae, expressed in BL21 E. coli, used as cell lysate (protein, UniProt Q02891 1-456, looked up)
Medium-chain fatty acid ethyl …: MFRSGYYPTVTPSHWGYNGTVKHVLGEKGTKSLAFRDSKRQIPLHEFVTKHVPTLKDGANFRLNSLLFTGYLQTLYLSAGDFSKKFQVFYGREIIKFSDGGVCTADWVMPEWEQTYSLNAEKASFNEKQFSNDEKATHPKGWPRLHPRTRYLSSEELEKCHSKGYSYPLVVVLHGLAGGSHEPLIRALSEDLSKVGDGKFQVVVLNARGCSRSKVTTRRIFTALHTGDVREFLNHQKALFPQRKIYAVGTSFGAAMLTNYLGEEGDNCPLNAAVALSNPWDFVHTWDKLAHDWWSNHIFSRTLTQFLTRTVKVNMNELQVPENFEVSHKPTVEKPVFYTYTRENLEKAEKFTDILEFDNLFTAPSMGLPDGLTYYRKASSINRLPNIKIPTLIINATDDPVTGENVIPYKQARENPCVLLCETDLGGHLAYLDNESNSWLTKQAAEFLGSFDELVL
modifications: cell lysate
B2: EstA: esterase from Pseudomonas aeruginosa, expressed in BL21 E. coli (protein, UniProt O33407 25-646, looked up)
Esterase EstA: APSPYSTLVVFGDSLSDAGQFPDPAGPAGSTSRFTNRVGPTYQNGSGEIFGPTAPMLLGNQLGIAPGDLAASTSPVNAQQGIADGNNWAVGGYRTDQIYDSITAANGSLIERDNTLLRSRDGYLVDRARQGLGADPNALYYITGGGNDFLQGRILNDVQAQQAAGRLVDSVQALQQAGARYIVVWLLPDLGLTPATFGGPLQPFASQLSGTFNAELTAQLSQAGANVIPLNIPLLLKEGMANPASFGLAADQNLIGTCFSGNGCTMNPTYGINGSTPDPSKLLFNDSVHPTITGQRLIADYTYSLLSAPWELTLLPEMAHGTLRAYQDELRSQWQADWENWQNVGQWRGFVGGGGQRLDFDSQDSAASGDGNGYNLTLGGSYRIDEAWRAGVAAGFYRQKLEAGAKDSDYRMNSYMASAFVQYQENRWWADAALTGGYLDYDDLKRKFALGGGERSEKGDTNGHLWAFSARLGYDIAQQADSPWHLSPFVSADYARVEVDGYSEKGASATALDYDDQKRSSKRLGAGLQGKYAFGSDTQLFAEYAHEREYEDDTQDLTMSLNSLPGNRFTLEGYTPQDHLNRVSLGFSQKLAPELSLRGGYNWRKGEDDTQQSVSLALSLDF

Key:
[1] = 25° C.; cited from earlier work
[2] = Temperature and pH optimisation, pNPA reaction assay (Example Set 1); type: biochemical; conditions: tested 22, 30, 37 °C; pH 6, 7, 8; 100 μM pNPA
Source text: (§1) Esterase activity is used to indirectly measure the esterification activity required for enzymes to produce ethyl lactate. Cleavage of the ester bond in 4-nitrophenyl acetate (pNPA) to form 4-nitrophenol (pNP) and acetic acid is used to determine the esterase activity of the enzymes. The Km and Vmax values, found by applying the Michaelis-Menten kinetics model to experimental data found at optimal pH and temperature conditions, are used to evaluate enzymatic activity. As disclosed herein, hydrolysis of the ester bond in pNPA was used to estimate the esterification activity of the enzymes.
(§2) This work involved two separate sets of examples (Generally, Example Set 1 and Example Set 2). Example Set 1 set was performed to determine the optimum temperature and pH conditions for each enzyme to catalyze the pNPA reaction. Three temperatures (22, 30, 37° C.) and three pH conditions (pH of 6, 7, 8) were tested. The temperature and pH condition which led to the highest product concentration were selected as the conditions to be used for each enzyme in Example set 2. The second set of examples was a kinetics reaction assay where reaction progress was measured at five time points (0, 15, 30, 60, 120) for six different initial pNPA concentrations (0, 25, 50, 100, 150, 200 μM).
Example Set 1 had the objective of determining the optimum temperature and pH conditions at which to run experiments for enzymatic activity characterization. As such, temperature and pH were the only conditions that varied in this experiment. Both were tested at three different levels which were similar to normal cell conditions: 22, 30 and 37° C. for temperature and 6, 7, and 8 for pH.
These were tested for all 8 enzymes from Table 1, as well as the wild type control, and a blank containing no enzyme.
The phosphate buffer was of 6, 7, or 8 pH, respectively. Lysate for each enzyme was diluted down to 250 μg/ml to facilitate ease of addition—each blank received an extra 100 μl of phosphate buffer instead of diluted cell lysate. The enzymatic component was added last and was the catalyst to initialize the reaction. The reactions were performed in three deep 96-well plates each of which was incubated at one of the temperature conditions. Agitation was provided by incubators shaking at 230 RPM.
Readings were made at 30 and 60 minutes following the initialization of the reaction. To make a reading, 200 μl of the reaction volume were transferred from the deep well plates to standard 96-well plates. The pNP product of the pNPA reaction assays is detected through Absorbance at a wavelength of 410 nm.
A curve was generated to convert from absorbances to pNP concentration. The relationship between a colored chemical and its absorbance is usually linear and can be used to convert absorbance values into chemical concentrations. To know how much pNP was being detected through absorbance, it was necessary to create a standard curve to obtain values for the relationship between the concentration of pNP and the absorbance of pNP. Creating a standard curve involved creating samples of different pNP concentrations. For the pNP to give color, it needed to be ionized. Accordingly, pNP was ionized in the presence of NaOH at a concentration of 0.4 g/ml. A standard curve was created by taking the absorbance of pNP at various known concentrations. […] As also seen in FIG. 5, the data (solid line) closely follows a linear pattern over the concentration range being tested for pNP. The R2 value for the linear regression is 0.9939. The formula for converting from absorbance to pNP, derived from that linear regression, is seen in Equation A1: [pNP]=(Abs+0.0244)/25.929 [A1]

[3] = Kinetics reaction assay, pNPA to pNP, Michaelis-Menten model (Example Set 2); type: biochemical; conditions: for specificity constant, comparison in words: FIG. 15; for vmax × 10^−6 / Km: pNPA to pNP, cell lysate 50 μg/ml protein, optimal temperature and pH of each enzyme; for Km: read-out: km × 10^−6; for kcat: turnover number, all protein detected by Bradford's reagent assumed to be the enzyme
Source text: as §1
Enzymatic activity can be characterized by calculating kinetic parameters for the enzymes considered. To calculate kinetic parameters for an enzyme, a kinetic model must be applied to the data.
In this form, only the initial reaction rate and substrate concentrations are considered—with the initial reaction rate being the average change in product concentration between the reaction initiation and the first subsequent reading. Plotting the inverse of v0 against the inverse of [S0] results in what is known as a Lineweaver-Burk plot. An example of a Lineweaver-Burk plot is seen in FIG. 2.
A linear regression of the data in such plots follows the linearized Michaelis-Menten equations. The y-intercept of the Lineweaver-Burk plot is the inverse of vmax; the slope multiplied by vmax gives the value of the km parameter. This is summarized in Equation 4: […]
Therefore, the kinetic parameters of an enzyme can be determined through the parameters obtained through a linear regression applied to linearized kinetics data. Once vmax and km are determined, they can be used to calculate the turnover number and the specificity constant. This approach utilizes experiments being performed with varying initial substrate concentrations while holding all other parameters constant.
as §2
In Example Set 2, a kinetics reaction assay was performed on the enzymes from Table 1. […] That enzymatic activity was tested for at the ideal temperature and pH conditions determined in the optimization experiment.
One deviation from the common protocols for Example Set 2 was that cell pellets had been stored in −80° C. for seven days instead of the usual 24 hours. In addition, the lysing process included more vigorous agitation.
To determine the kinetic activity for each enzyme, substrate concentration was varied and measured at different time points. In addition to testing each enzyme, a wild type E. coli PET control (see Table 1) was run at its optimal conditions. A blank containing pNPA but no enzyme was also included for each of the temperature pH combinations to be tested.
Initial pNPA concentrations were tested at 0, 25, 50, 100, 150, 200 μM. Measurements were made at 0, 15, 30, 60, and 120 minutes.
The phosphate buffer was of pH 6, 7, or 8 as determined to be best from Example Set 1. Stock solutions of pNPA were made in different concentrations such that adding 20 μl to the reaction would result in the corresponding final pNPA concentration (either 25, 50, 100, 150, or 200 μM). Cell lysate was diluted to concentrations of 250 μg/m to allow for uniformity in the volume of lysate added to each reaction. Instead of diluted lysate, each blank received an extra 200 μl of phosphate buffer. […]

[4] = system: E. coli BL21-DE3; test: In vivo production of esters by engineered E. coli, culture supernatants by GC-MS (Example Set 3); type: cell-based; conditions: culture supernatant, M9 medium, 1 mM IPTG
Source text: E. coli cells were engineered through two step cloning. First, the cells (E. coli BL21-DE3, a commercially available genetic transformation-ready strain) were cloned with esterase or transferase enzymes using pET15b plasmid at NdeI/BamHI locus in the vector.
Specifically, plasmids were constructed (PT7::RBS:Gene*::PT7::RBS:pct::RBS:ldh in pET15b) and cloned in E. coli BL21-DE3 with ethanol producing plasmid (pACYDuet-Zm-pdc-Zm-adh). Cells were cultivated with high-cell density in M9 medium and induced with 1 mM IPTG.
Culture supernatants were analyzed through HPLC (for ethanol and lactate) and GC-MS (for esters). Esterase-A yielded highest ethyl lactate (3.5±1.5 mg/L) and ethyl acetate (16±8 mg/L).
FIGS. 18 and 19 show a GC-MS analysis of culture supernatants (collected after 22 h and 46 h of incubation) of mutants extracted with chloroform.

| Molecule | vapor pressure [1] | Temperature giving 2nd highest conversion of pNPA to pNP [2] | Temperature giving highest conversion of pNPA to pNP [2] | pH giving 2nd highest conversion of pNPA to pNP [2] | pH giving highest conversion of pNPA to pNP [2] | specificity constant, comparison in words [3] | vmax × 10^−6 [3] | Km [3] | kcat [3] | ethyl acetate yielded [4] | ethyl lactate yielded [4] |
| --- | --- | --- | --- | --- | --- | --- | --- | --- | --- | --- | --- |
| Cc1ccccc1 [toluene] | 28.4 mm Hg | – | – | – | – | – | – | – | – | – | – |
| CCOC(=O)C(C)O (stereo not drawn) [ethyl lactate] | 3.75 mm Hg | – | – | – | – | – | – | – | – | – | – |
| xylene | 8.84 mm Hg | – | – | – | – | – | – | – | – | – | – |
| B1 | – | 30 °C | 22 °C | 8 | 7 | top performing enzymes | 1.34 ± 0.26 × 10^−6 molL^−1s^−1 | 3.9 ± 0.74 µM | 1.39 ± 0.26 s⁻¹ | – | – |
| B2 | – | 37 °C | 22 °C | 8 | 7 | top performing enzymes | 1.09 ± 0.05 × 10^−6 molL^−1s^−1 | 4.89 ± 1.16 µM | 1.52 ± 0.36 s⁻¹ | 16 ± 8 mg/L | 3.5 ± 1.5 mg/L |
